Target: the molecule itself
Experiment: cryo-EM structure

B1: stomatin (STOM) fused at its C terminus with a Twin-Strep tag (natural protein, human, UniProt P27105 1-288, looked up)
chain: MAEKRHTRDSEAQRLPDSFKDSPSKGLGPCGWILVAFSFLFTVITFPISIWMCIKIIKEYERAIIFRLGRILQGGAKGPGLFFILPCTDSFIKVDMRTISFDIPPQEILTKDSVTISVDGVVYYRVQNATLAVANITNADSATRLLAQTTLRNVLGTKNLSQILSDREEIAHNMQSTLDDATDAWGIKVERVEIKDVKLPVQLQRAMAAEAEASREARAKVIAAEGEMNASRALKEASMVITESPAALQLRYLQTLTTIAAEKNSTIVFPLPIDMLQGIIGAKHSHLG
stoichiometry N: 16 subunits
